Measurements taken from publication PMC12854727.

These substances were tested against human TMPRSS2 ectodomain harboring S441, the DS mutation, SUMO and the N249 glycan (self-activating; wildtype of Figure 4C) (human) (UniProt O15393) (assay: enzyme inhibition kinetics (peptidase assay, competitive inhibition fit); 5 nM TMPRSS2 with serial dilutions of Boc-QAR-AMC substrate in the presence of 215, 72 or 24 nM HKU1 RBD, 22 °C; TMPRSS2 incubated 2 minutes with the RBD before substrate). Conditions: not given.

For “HKU1 isolate N1 (genotype A) RBD, wildtype, without avi tag (from UniProt Q5MQD0 320-614) (domain or fragment)”, which Ki is on record?
The Ki was 38 nM.

Each substance was assayed against cleaved human TMPRSS2 ectodomain harboring the S441A residue substitution and a C379-T447C disulfide bond (UniProt O15393) (assay: BLI). Conditions: 100 nM TMPRSS2 S441A for 200 seconds followed by dissociation for 400 seconds; RBD on SA biosensors; value read at 200 s; parent: est. 0.53; read off a plot.

“HKU1 isolate N1 (genotype A) RBD, wildtype, biotinylated (avi tag) (from UniProt Q5MQD0) W515A” was tested. Which response did it give?
Its response is 0 nm.

Which response does the source give for “HKU1 isolate N1 (genotype A) RBD, wildtype, biotinylated (avi tag) (from UniProt Q5MQD0) Y528A” here?
Its response is 0.11 nm.

How did the response turn out when “HKU1 isolate N1 (genotype A) RBD, wildtype, biotinylated (avi tag) (from UniProt Q5MQD0) E505A” was run?
The response was 0.36 nm.

For “HKU1 isolate N1 (genotype A) RBD, wildtype, biotinylated (avi tag) (from UniProt Q5MQD0) H488A”, which response is on record?
The response was 0.18 nm.

For “HKU1 isolate N1 (genotype A) RBD, wildtype, biotinylated (avi tag) (from UniProt Q5MQD0) L510A”, which response is on record?
Its response is 0 nm.

“HKU1 isolate N1 (genotype A) RBD, wildtype, biotinylated (avi tag) (from UniProt Q5MQD0) R517A” was tested. Which response did it give?
Its response is 0.022 nm.

How did the response turn out when “HKU1 isolate N1 (genotype A) RBD, wildtype, biotinylated (avi tag) (from UniProt Q5MQD0) V509A” was run?
Its response is 0.1 nm.

What follows are substances tested against HKU1 isolate N1 (genotype A) RBD, wildtype, biotinylated (avi tag) (UniProt Q5MQD0) (assay: BLI). Conditions: 100 nM TMPRSS2; area under the binding response curve normalised to human WT TMPRSS2, not to the mouse parent; parent: est. 19; read off a plot.

Which response does the source give for “S441A House Mouse TMPRSS2 ectodomain (DS mutation, SUMO, N249 glycan) S412N” here?
The response was 38 % WT.

Same assay, conditions: 100 nM TMPRSS2; area under the binding response curve normalised to human WT TMPRSS2, not to the mouse parent; read off a plot

For House Mouse TMPRSS2 ectodomain S441A, which response is on record?
Its response is 19 % WT.

Same assay, conditions: 100 nM TMPRSS2; area under the binding response curve; Not activated: uncleaved S441A TMPRSS2; read off a plot

How did the percent of parent turn out when “human TMPRSS2 ectodomain harboring S441, the DS mutation, SUMO and the N249 glycan (self-activating; wildtype of Figure 4C) (from UniProt O15393) S441A” was run?
Its percent of parent is 1.4 % WT.

Same assay, conditions: 100 nM TMPRSS2; area under the binding response curve; cleaved (activated by enterokinase); read off a plot

“human TMPRSS2 ectodomain harboring S441, the DS mutation, SUMO and the N249 glycan (self-activating; wildtype of Figure 4C) (from UniProt O15393) S441A” was tested. Which percent of parent did it give?
Its percent of parent is 100 % WT.

Same assay, conditions: 100 nM TMPRSS2; area under the binding response curve; read off a plot

Which percent of parent does the source give for “human TMPRSS2 ectodomain harboring S441, the DS mutation, SUMO and the N249 glycan (self-activating; wildtype of Figure 4C) (from UniProt O15393) R470K” here?
The percent of parent was 1.6 % WT.

For “human TMPRSS2 ectodomain harboring S441, the DS mutation, SUMO and the N249 glycan (self-activating; wildtype of Figure 4C) (from UniProt O15393) A468P”, which percent of parent is on record?
The percent of parent was 95 % WT.

How did the percent of parent turn out when “human TMPRSS2 ectodomain harboring S441, the DS mutation, SUMO and the N249 glycan (self-activating; wildtype of Figure 4C) (from UniProt O15393) S463T” was run?
The percent of parent was 2 % WT.

Which percent of parent does the source give for “human TMPRSS2 ectodomain harboring S441, the DS mutation, SUMO and the N249 glycan (self-activating; wildtype of Figure 4C) (from UniProt O15393) V415I” here?
Its percent of parent is 71 % WT.

How did the percent of parent turn out when “human TMPRSS2 ectodomain harboring S441, the DS mutation, SUMO and the N249 glycan (self-activating; wildtype of Figure 4C) (from UniProt O15393) Y469N” was run?
The percent of parent was 10 % WT.

“human TMPRSS2 ectodomain harboring S441, the DS mutation, SUMO and the N249 glycan (self-activating; wildtype of Figure 4C) (from UniProt O15393) Y414L” was tested. Which percent of parent did it give?
Its percent of parent is 2.5 % WT.

For “human TMPRSS2 ectodomain harboring S441, the DS mutation, SUMO and the N249 glycan (self-activating; wildtype of Figure 4C) (from UniProt O15393) R413V”, which percent of parent is on record?
Its percent of parent is 85 % WT.

“human TMPRSS2 ectodomain harboring S441, the DS mutation, SUMO and the N249 glycan (self-activating; wildtype of Figure 4C) (from UniProt O15393) R409K” was tested. Which percent of parent did it give?
Its percent of parent is 81 % WT.

“human TMPRSS2 ectodomain harboring S441, the DS mutation, SUMO and the N249 glycan (self-activating; wildtype of Figure 4C) (from UniProt O15393) R409T” was tested. Which percent of parent did it give?
Its percent of parent is 79 % WT.

Which percent of parent does the source give for “human TMPRSS2 ectodomain harboring S441, the DS mutation, SUMO and the N249 glycan (self-activating; wildtype of Figure 4C) (from UniProt O15393) L419A” here?
The percent of parent was 4.1 % WT.

“human TMPRSS2 ectodomain harboring S441, the DS mutation, SUMO and the N249 glycan (self-activating; wildtype of Figure 4C) (from UniProt O15393) R413K” was tested. Which percent of parent did it give?
Its percent of parent is 77 % WT.

With “human TMPRSS2 ectodomain harboring S441, the DS mutation, SUMO and the N249 glycan (self-activating; wildtype of Figure 4C) (from UniProt O15393) Y469L” as the substance, how does the percent of parent read?
The percent of parent was 130 % WT.

“human TMPRSS2 ectodomain harboring S441, the DS mutation, SUMO and the N249 glycan (self-activating; wildtype of Figure 4C) (from UniProt O15393) Y414R” was tested. Which percent of parent did it give?
Its percent of parent is 3.9 % WT.

Which percent of parent does the source give for “human TMPRSS2 ectodomain harboring S441, the DS mutation, SUMO and the N249 glycan (self-activating; wildtype of Figure 4C) (from UniProt O15393) S463F” here?
The percent of parent was 1.6 % WT.

For “human TMPRSS2 ectodomain harboring S441, the DS mutation, SUMO and the N249 glycan (self-activating; wildtype of Figure 4C) (from UniProt O15393) S412N; Y469L”, which percent of parent is on record?
The percent of parent was 81 % WT.

For “human TMPRSS2 ectodomain harboring S441, the DS mutation, SUMO and the N249 glycan (self-activating; wildtype of Figure 4C) (from UniProt O15393) S463Y”, which percent of parent is on record?
The percent of parent was 1.5 % WT.

“human TMPRSS2 ectodomain harboring S441, the DS mutation, SUMO and the N249 glycan (self-activating; wildtype of Figure 4C) (from UniProt O15393) L419M” was tested. Which percent of parent did it give?
The percent of parent was 51 % WT.

“human TMPRSS2 ectodomain harboring S441, the DS mutation, SUMO and the N249 glycan (self-activating; wildtype of Figure 4C) (from UniProt O15393) S412N” was tested. Which percent of parent did it give?
Its percent of parent is 110 % WT.

“human TMPRSS2 ectodomain harboring S441, the DS mutation, SUMO and the N249 glycan (self-activating; wildtype of Figure 4C) (from UniProt O15393) D417N” was tested. Which percent of parent did it give?
Its percent of parent is 15 % WT.

With “human TMPRSS2 ectodomain harboring S441, the DS mutation, SUMO and the N249 glycan (self-activating; wildtype of Figure 4C) (from UniProt O15393) Y414S” as the substance, how does the percent of parent read?
Its percent of parent is 28 % WT.

For “human TMPRSS2 ectodomain harboring S441, the DS mutation, SUMO and the N249 glycan (self-activating; wildtype of Figure 4C) (from UniProt O15393) K340D”, which percent of parent is on record?
Its percent of parent is 57 % WT.

For “human TMPRSS2 ectodomain harboring S441, the DS mutation, SUMO and the N249 glycan (self-activating; wildtype of Figure 4C) (from UniProt O15393) T341S”, which percent of parent is on record?
The percent of parent was 85 % WT.

Same assay, conditions: 100 nM TMPRSS2 mutants for 200 seconds followed by dissociation for 400 seconds; RBD on SA biosensors; value read at 200 s; parent: est. 0.50; read off a plot

For “human TMPRSS2 ectodomain with S441 and the C379-T447C disulfide bond (wildtype of Figure 2F) (from UniProt O15393) R470A”, which response is on record?
The response was 0.14 nm.

With “human TMPRSS2 ectodomain with S441 and the C379-T447C disulfide bond (wildtype of Figure 2F) (from UniProt O15393) W461A” as the substance, how does the response read?
Its response is 0 nm.

Which response does the source give for “human TMPRSS2 ectodomain with S441 and the C379-T447C disulfide bond (wildtype of Figure 2F) (from UniProt O15393) Y414A” here?
The response was 0.1 nm.

Which response does the source give for “human TMPRSS2 ectodomain with S441 and the C379-T447C disulfide bond (wildtype of Figure 2F) (from UniProt O15393) Y469A” here?
Its response is 0.36 nm.
